Data published in PMC4197836.
Like-named read-outs stand apart in the source and are kept apart here.

Legend:
Test in all cases: AlphaScreen or HTRF
[1] = molecular target: His6-tagged MLV IN (Moloney Murine Leukemia Virus)
[2] = molecular target: His6-tagged MLV IN (Moloney Murine Leukemia Virus); remark: listed apart in the source
[3] = molecular target: GST-tagged mBRD4ET (aa 601-685) (mouse) (UniProt Q9ESU6)

Chain of His6-tagged MLV IN (Moloney Murine Leukemia Virus) (P03355 1331-1738 limits assumed): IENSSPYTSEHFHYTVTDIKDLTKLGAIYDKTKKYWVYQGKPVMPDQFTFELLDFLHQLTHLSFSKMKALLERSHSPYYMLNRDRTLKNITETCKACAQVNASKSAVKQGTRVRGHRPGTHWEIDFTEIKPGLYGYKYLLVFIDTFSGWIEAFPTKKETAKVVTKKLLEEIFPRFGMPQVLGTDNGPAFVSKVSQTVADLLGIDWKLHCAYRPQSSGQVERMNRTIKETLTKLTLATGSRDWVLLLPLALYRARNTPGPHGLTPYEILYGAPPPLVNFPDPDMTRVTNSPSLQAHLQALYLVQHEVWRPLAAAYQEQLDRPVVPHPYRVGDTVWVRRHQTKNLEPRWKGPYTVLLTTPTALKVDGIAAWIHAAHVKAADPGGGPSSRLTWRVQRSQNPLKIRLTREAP

Row | Substance | Kd [1] | Kd [2] | Kd [3]
1 | GST-tagged mBRD4_(ETSEED) (aa 601-721) (from UniProt Q9ESU6 601-721) (domain or fragment) | 8.56 nM | 58.7 nM | –
2 | His6-tagged MLV IN (enzyme) | – | – | 56.7 nM
3 | MBP-fused BRD3 ET domain (domain or fragment) | – | 0.97 nM | –
4 | GST-tagged mBRD4ET (aa 601-685) (from UniProt Q9ESU6 601-685) (domain or fragment) | 58.7 nM | 8.56 nM | –
5 | MBP-fused BRD2 ET domain (domain or fragment) | – | 0.6 nM | –
6 | MBP-fused BRD4 ET domain (domain or fragment) | – | 0.41 nM | –
